Patent US7276481B2, “Method and composition for treatment of skeletal dysplasias” (ProChon Biotech Ltd., priority 2001, dated 2007)

Target: T1, natriuretic peptide receptor on C3H10T1/2 cells (Mus musculus, UniProt Q6VVW5)
T1 construct: endogenous in cells; host or cells: C3H10T1/2 cells
T1 sequence (Q6VVW5 23-1047 limits assumed): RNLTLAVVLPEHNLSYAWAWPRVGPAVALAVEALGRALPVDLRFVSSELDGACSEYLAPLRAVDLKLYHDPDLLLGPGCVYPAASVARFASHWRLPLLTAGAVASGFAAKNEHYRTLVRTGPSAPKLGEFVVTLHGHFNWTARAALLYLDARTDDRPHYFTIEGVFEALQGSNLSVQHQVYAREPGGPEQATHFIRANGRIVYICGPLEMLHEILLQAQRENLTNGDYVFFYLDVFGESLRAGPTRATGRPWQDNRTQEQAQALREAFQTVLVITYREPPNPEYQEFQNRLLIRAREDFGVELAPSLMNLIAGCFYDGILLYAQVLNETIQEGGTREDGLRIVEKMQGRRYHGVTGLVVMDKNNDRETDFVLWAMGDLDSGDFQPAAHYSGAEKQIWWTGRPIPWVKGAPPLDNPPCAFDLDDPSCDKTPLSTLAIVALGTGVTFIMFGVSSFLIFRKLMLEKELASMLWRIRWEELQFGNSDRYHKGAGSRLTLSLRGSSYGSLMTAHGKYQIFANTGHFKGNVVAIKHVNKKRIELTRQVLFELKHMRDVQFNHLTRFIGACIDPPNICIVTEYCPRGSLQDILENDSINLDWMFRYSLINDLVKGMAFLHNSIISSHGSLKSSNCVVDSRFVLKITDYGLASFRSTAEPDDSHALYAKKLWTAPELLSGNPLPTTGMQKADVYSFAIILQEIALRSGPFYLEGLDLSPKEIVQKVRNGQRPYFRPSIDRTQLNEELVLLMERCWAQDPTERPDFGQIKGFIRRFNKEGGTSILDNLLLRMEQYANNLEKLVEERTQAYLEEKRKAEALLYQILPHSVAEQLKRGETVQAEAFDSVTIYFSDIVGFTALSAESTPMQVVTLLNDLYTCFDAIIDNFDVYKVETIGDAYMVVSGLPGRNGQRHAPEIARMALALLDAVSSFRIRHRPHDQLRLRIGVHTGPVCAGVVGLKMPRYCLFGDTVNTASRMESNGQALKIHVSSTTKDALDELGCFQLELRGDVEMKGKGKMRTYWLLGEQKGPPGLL
Experiment: Biotrak enzyme immunoassay of cGMP elicited on C3H10T1/2 cells
Assay type: cell-based
Procedure: All peptide variants were analyzed for activity using the Biotrak enzyme immunoassay (EIA, Amersham) that measures the amount of secondary messenger, cyclic GMP (cGMP), elicited after activation of the natriuretic peptide receptor by the peptide on C3H10T1/2 cells. Amino acid substitutions are marked in bold and underlined. The assay was performed for CNP and variants at a concentration of 10^−6 M. The values are given as the percent of relative binding compared to CNP, where CNP 1-22 and CNP 5-22 yield 100% binding.

[1] = Table 2, cGMP assay, compared to CNP
[2] = Table 3, cGMP values at 10^-6 M, compared to CNP (CNP 1-22 and CNP 5-22 = 100%)

| Sequence | cGMP response as percent of CNP [1] | cGMP response as percent of CNP [2] |
| --- | --- | --- |
| C H F G L K L D R I G S M S - - C (CHFGLKLDRIGSMSC; peptide variant) [SEQ ID NO:11] | 25.9% |  |
| C F G L K L D R A G S M S G L G C (CFGLKLDRAGSMSGLGC; peptide variant) [SEQ ID NO:9] | 11.5% |  |
| C F G L K L E R I G S M S G L G C (CFGLKLERIGSMSGLGC; peptide variant) [SEQ ID NO:35] |  | 9.450% |
| C F G L K L A R I G S A S G L G C (CFGLKLARIGSASGLGC; peptide variant) [SEQ ID NO:26] |  | 5.755% |
| C W G L K L D R I G S M S G L G C (CWGLKLDRIGSMSGLGC; peptide variant) [SEQ ID NO:31] |  | −10.834% |
| C A G L K L A R I G S A S G L G C (CAGLKLARIGSASGLGC; peptide variant) [SEQ ID NO:27] |  | −10.355% |
| C F G L K L D R I G A M - - - - C (CFGLKLDRIGAMC) [SEQ ID NO:17] | 3.4% |  |
| C F G L K L D R I G S M - - - - C (CFGLKLDRIGSMC; peptide variant) [SEQ ID NO:16] | 17.3% |  |
| C F G L K L D R I G S M S - - - C (CFGLKLDRIGSMSC; peptide variant) [SEQ ID NO:14] | 29.9% |  |
| C T G L K L D R I G S M S G L G C (CTGLKLDRIGSMSGLGC; peptide variant) [SEQ ID NO:34] |  | −6.903% |

Now from value to sequence:

| cGMP response as percent of CNP [1] | cGMP response as percent of CNP [2] | Sequence |
| --- | --- | --- |
|  | 7.784% | C F G L K L M R I G S M S G L G C (CFGLKLMRIGSMSGLGC; peptide variant) [SEQ ID NO:39] |
|  | −1.945% | C F G L K L D R T G S M S G L G C (CFGLKLDRTGSMSGLGC; peptide variant) [SEQ ID NO:53] |
|  | 74.080% | C F G L K L D R I G T M S G L G C (CFGLKLDRIGTMSGLGC; peptide variant) [SEQ ID NO:56] |
|  | 14.177% | C F G L K L D R L G S M S G L G C (CFGLKLDRLGSMSGLGC; peptide variant) [SEQ ID NO:51] |
|  | 7.228% | C F G L K L I R I G S M S G L G C (CFGLKLIRIGSMSGLGC; peptide variant) [SEQ ID NO:38] |
|  | 3.058% | C H G L K L D R I G S A S G L G C (CHGLKLDRIGSASGLGC; peptide variant) [SEQ ID NO:70] |
|  | −3.474% | C F G L K L D R I G S M S G Q G C (CFGLKLDRIGSMSGQGC; peptide variant) [SEQ ID NO:61] |
|  | 66.714% | C F G L K V D R I G S M S G L G C (CFGLKVDRIGSMSGLGC; peptide variant) [SEQ ID NO:47] |
|  | 53.649% | C F G L K L D R I G S M S A L G C (CFGLKLDRIGSMSALGC; peptide variant) [SEQ ID NO:58] |
|  | 51.286% | C F G L K L D R I G S M S G M G C (CFGLKLDRIGSMSGMGC; peptide variant) [SEQ ID NO:62] |
|  | 62.531% | C F G L K L D R I G S S S G L G C (CFGLKLDRIGSSSGLGC; peptide variant) [SEQ ID NO:68] |
|  | 47.395% | C F G I K L D R I G S M S G L G C (CFGIKLDRIGSMSGLGC; peptide variant) [SEQ ID NO:41] |
|  | 15.289% | C F G L K L D R I G S M S L L G C (CFGLKLDRIGSMSLLGC; peptide variant) [SEQ ID NO:59] |
